# Reference: patent US7179464
# Experiments:
# [1] = biological target: soluble human IL-5R α (shIL-5R α) (human) (UniProt Q01344); assay: discussion of the ELISA results; assay not given
# [2] = biological target: soluble human IL-5R α (shIL-5R α) (human) (UniProt Q01344); assay: ELISA method 2: purified antibody on plate-coated shIL-5R α, anti-human IgG detection
# soluble human IL-5R α (shIL-5R α) (human), sequence (Q01344 other isoform, or with tags, fused parts or gaps limits assumed, form in doubt): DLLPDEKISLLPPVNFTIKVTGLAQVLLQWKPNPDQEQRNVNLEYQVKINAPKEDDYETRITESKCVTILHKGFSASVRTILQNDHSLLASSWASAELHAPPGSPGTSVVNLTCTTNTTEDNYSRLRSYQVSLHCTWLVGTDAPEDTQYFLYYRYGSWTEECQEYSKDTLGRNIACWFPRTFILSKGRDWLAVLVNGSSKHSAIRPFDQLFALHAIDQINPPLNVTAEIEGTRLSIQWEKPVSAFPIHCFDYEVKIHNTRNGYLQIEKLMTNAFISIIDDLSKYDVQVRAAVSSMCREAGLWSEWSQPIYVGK
binder,measurement,setting,value
"anti-human IL-5R α chain human CDR-grafted antibody KM8397 (antibody, human IgG1, V domains shown) VH: EVQLVQSGAEVKKPGASVKVSCKASGYTFTSYVIHWVRQAPGQGLEWMGYINPYNDGTKYNERFKGRVTITADTSTSTAYMELSSLRSEDTAVYYCAREGIRYYGLLGDYWGQGTLVTVSS VL: DIQMTQSPSSLSASVGDRVTITCGTSEDIINYLNWYQQKPGKAPKLLIYHTSRLQSGVPSRFSGSGSGTDFTLTISSLQPEDFATYYCQQGYTLPYTFGQGTKVEIK",activity relative to KM1259 (fold of KM1259),[1],0.5
same,reactivity relative to KM1399 (fold of KM1399),[2],0.5
